The text below walks through data of publication PMC10940649, “Structural insights into human organic cation transporter 1 transport and inhibition” (Cell Discovery, 2024).

In the experiment the target is T1, human organic cation transporter 1 (hOCT1) (Homo sapiens, UniProt O15245).
T1 construct: human organic cation transporter 1 (SLC22A1), full-length, wild-type construct used for cryo-EM structure determination; A 3C protease cleavage site stands between hOCT1 and GFPuv-His6; The FSEC-TS assay used hOCT1-GFP; also called SLC22A1; hOCT1-GFP; source: Sf9 insect cells (baculovirus), purified (Ni-NTA, protein C column, SEC) in DDM or LMNG micelles
Briefly: SEC; Nb56 with hOCT1; co-migration on size exclusion chromatography. The following applies: both partners purified.

T1 sequence (O15245 whole entry): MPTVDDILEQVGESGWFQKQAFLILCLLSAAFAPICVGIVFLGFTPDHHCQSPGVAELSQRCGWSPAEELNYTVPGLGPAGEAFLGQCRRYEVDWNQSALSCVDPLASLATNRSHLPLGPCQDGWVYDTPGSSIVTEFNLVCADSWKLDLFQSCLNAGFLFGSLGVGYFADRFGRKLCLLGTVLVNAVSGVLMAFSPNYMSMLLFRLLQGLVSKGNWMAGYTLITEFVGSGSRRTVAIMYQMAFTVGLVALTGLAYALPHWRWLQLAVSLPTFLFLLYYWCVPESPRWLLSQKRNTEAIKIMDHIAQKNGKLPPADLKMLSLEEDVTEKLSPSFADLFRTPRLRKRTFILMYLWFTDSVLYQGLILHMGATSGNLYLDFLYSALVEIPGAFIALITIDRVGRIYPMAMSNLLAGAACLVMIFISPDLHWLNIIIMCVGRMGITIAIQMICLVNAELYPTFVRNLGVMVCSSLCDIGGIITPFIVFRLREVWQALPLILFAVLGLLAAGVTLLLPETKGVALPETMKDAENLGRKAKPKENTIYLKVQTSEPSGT

B1: Nb56 (VHH)
VHH: QVQLQESGGGLVQAGGSLRLSCAASGTIFYYEIMGWYRQAPGKEREFVATIDQGGITNYADSVKGRFTISRDNAKNTVYLQMNSLKPEDTAVYYCAVPDVFVGRGWDYLIYWGQGTQVTVSS
notes: Nanobody selected from a synthetic yeast display library with hOCT1 in LMNG as bait; Nb56 was modelled in the deposited hOCT1-Nb5660 structures (hOCT1-apo1, -apo2, -apo3); source: E. coli BL21 (DE3), pET26b, purified (Ni-NTA, SEC)
Regarding B1, the binding result is recorded as “binds”.
